Measured values taken from article PMC7544233 (2020).
Blank lines part the entries; values can stand above or below the molecule they belong to.

Tests used:
[1] = test system: FAM-D-hTERC rG4 (RNA, G4) GGGUUGCGGAGGGUGGGCCU; assay: microscale thermophoresis; conditions: 150 mM KCl, 1 mM MgCl2; 25 mM Tris-HCl pH 7.5, 25 °C, 40 nM RNA
RHAU53 peptide = target: T1, RHAU53 peptide (UniProt Q9H2U1 53-105); assay: EMSA
T1 sequence: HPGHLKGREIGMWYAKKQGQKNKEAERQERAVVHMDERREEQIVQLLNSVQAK

nucleolin = nucleolin (UniProt P19338 1-710); assay: EMSA
Sequence of nucleolin (P19338 whole entry): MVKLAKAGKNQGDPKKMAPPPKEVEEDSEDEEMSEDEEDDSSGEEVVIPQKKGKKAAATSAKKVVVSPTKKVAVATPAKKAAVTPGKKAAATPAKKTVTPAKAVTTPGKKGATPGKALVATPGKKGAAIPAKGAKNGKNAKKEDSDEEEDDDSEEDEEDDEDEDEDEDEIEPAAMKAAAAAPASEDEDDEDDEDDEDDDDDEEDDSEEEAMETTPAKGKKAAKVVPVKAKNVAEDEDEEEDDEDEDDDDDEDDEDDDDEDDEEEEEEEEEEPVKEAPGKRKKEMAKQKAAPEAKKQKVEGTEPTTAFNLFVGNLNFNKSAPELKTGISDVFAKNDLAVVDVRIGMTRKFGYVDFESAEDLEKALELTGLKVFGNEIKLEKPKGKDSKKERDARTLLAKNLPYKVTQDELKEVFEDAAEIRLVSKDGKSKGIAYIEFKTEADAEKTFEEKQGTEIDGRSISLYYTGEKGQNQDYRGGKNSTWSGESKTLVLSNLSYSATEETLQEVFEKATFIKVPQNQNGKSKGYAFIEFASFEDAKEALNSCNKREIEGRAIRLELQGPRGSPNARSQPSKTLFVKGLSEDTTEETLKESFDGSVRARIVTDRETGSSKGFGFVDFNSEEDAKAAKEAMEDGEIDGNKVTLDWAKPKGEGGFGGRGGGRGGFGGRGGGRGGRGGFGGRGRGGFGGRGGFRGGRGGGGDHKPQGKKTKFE

Kd [1]: 19.5 ± 11.5 nM
Molecule: NCCOc1cc(NC(=O)c2cc(OCc3cn(CCC(=O)O)nn3)cc(C(=O)Nc3cc(OCCN)c4ccccc4n3)n2)nc2ccccc12

B1: D-hTERC rG4 (structured_RNA)
RNA: GGGUUGCGGAGGGUGGGCCU
Kd (RHAU53 peptide): 24.5 ± 3.9 nM | binding result (nucleolin): binds
